Results on 16 sequences are retold here after a protein production outcome set (Wang et al. 2014).
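Note: failed if final PepcDB status was selected cloned or expressed and not failed if soluble or beyond.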

This data set in a line: label from the status in PepcDB records.
As for “MMPPQRSAGTDPEAEHPQYAGQYLLEAALGSGGMGVVHLARSASGLRLAVKVVHAQYAQDPEFRGRFRQEVAAARRVSGAFTAPVVDADPGAGRPWMATLFIPGPTLAEHVKRNGALPPARLRHLMAGLAEALRDIHRAGVVHRDLKPSNVLLAEDGPKVIDFGISRPSDSELRTETGKLIGTPPFMAPEQFRRPREVGPAADVFALGSVIVHAATGSGPFDSDSPYLVAYQVVHDEPDLTGVPEELAELVAGCLAKEPDDRPTPDELMTALRSVSASYDTQAFIPVQRDGSSGSAWRPGPGPGTGPGTGPGPGPGHGGERVVTHQVRQPEPVAAPAARKRLGRRLWIPAVAVAVLACVAGALVLLGPGTGAPREQDAAPSKAAFQPWDIGLSAGGSKATGMAQCAYAPHRLYCTRPGVLAAAVDPADGKVLWSRGDAKRHSDGTVRPPVLSGGLLHVVSEGGKRLAALDPATGKTRWSHDLAAYGGRFAQVGGVVLLTGADARVTALDAATGEEKWRRRIPGQPQPAFVSYGDGLAYAVAAAGSGTKVAAVDPESGATRWQRRFDGVLSLVGAHDGAVWFASTTADSDTDAVVRYDVTRRTVRRVGLRFPLQGAQAVVRKDTVYVLANGGALVAVDTRTSKELWRLETSVSFASAPVAAGDRVYFAGADGRLLAVDASKGVLLGQTKARLGGAHGSLVSGLPSPVAADGKVYSAAPDGSLFAVDARRPGGW”, the protein production result was “failed”.

Regarding “MMRCLTITIMFFMFFFLSVIQKCKSETSKSGDYIIYMGAASSDGSTDNDHVELLSSLLQRSGKTPMHRYKHGFSGFAAHLSEDEAHLIAKQPGVLSVFPDQMLQLHTTRSWDFLVQESYQRDTYFTEMNYEQESEMHEGDTIIGFLDSGIWPEAQSFNDRHMGPVPEKWKGTCMRGKKTQPDSFRCNRKLIGARYYNSSFFLDPDYETPRDFLGHGTHVASIAAGQIIANASYYGLASGIMRGGSPSSRIAMYRACSLLGCRGSSILAAFDDAIADGVDVISISMGLWPDNLLEDPLSIGSFHAVERGITVVCSVGNSGPSSQSVFNAAPWMITVAASTIDRGFESNILLGGDENRLIEGFGINIANIDKTQAYPLIHARSAKKIDANEEAARNCAPDTLDQTIVKGKIVVCDSDLDNQVIQWKSDEVKRLGGIGMVLVDDESMDLSFIDPSFLVTIIKPEDGIQIMSYINSTREPIATIMPTRSRTGHMLAPSIPSFSSRGPYLLTRSILKPDIAAPGVNILASWLVGDRNAAPEGKPPPLFNIESGTSMSCPHVSGIAARLKSRYPSWSPAAIRSAIMTTAVQMTNTGSHITTETGEKATPYDFGAGQVTIFGPSSPGLIYETNHMDYLNFLGYYGFTSDQIKKISNRIPQGFACPEQSNRGDISNINYPSISISNFNGKESRRVSRTVTNVASRLIGDEDTVYTVSIDAPEGLLVRVIPRRLHFRKIGDKLSYQVIFSSTTTILKDDAFGSITWSNGMYNVRSPFVVTSKDDNDSER”, the protein production result is reported as “failed”. Regarding “MMRDSPSIQGTLDAATQHALLAGRHADPFSVLGPHQAGAHTVVRVLAPGARTVMAVLPGGQRTPLLPMQPGLFENTVPGLQPGAPAAYRLCIEWEGGIQHTADPYAFGPVLD”, the protein production result was “failed”. The result for “MMRFVIGFLLSILASISLVSPANAAVIDHDKVVGFEEVTPTTITQKVAKRFQPYLTVSTGCVPFPAVDADGNTSGGLAPTGPHNGGCSSHIGQVYSRSTWHNGVWAIMYAWYFPKDSPSPGLGHRHDWEGIVVWVDNPANPSPQLLSIAYSQHGNFYNVAPTDRNTREQRPLIRYSHAWPLNHSLWIHDQVGGTQPLIGWDDLTPAARHALNTTDFGAANVPFNDHNFINNLRKAWYRLEHHHHHH” reads “failed”. The result for “MMRMKVKVVVNGKEYEVEVEEVMPGKFRVTLEGETYEVETSAGFVTSPKQVQVPTPAPTPAPAPTPTPAPAPSSKTVVSENVVSAPMPGKVLRVLVRVGDRVRVGQGLLVLEAMKMENEIPSPRDGVVKRILVKEGEAVDTGQPLIELG” reads “not failed”. As for “MMRPLCFFLLIFLLSGNPVMAAELRPFICVNEKDHLPSLDPQADAWYREAVALAKPDTLRPWDRIVDLYSKAVERGHWKAMHNLASLYRTGWPGGVEKDTQKALDLYQKMIDLKVPQGFYDMAAMIGNRAGVKNPATDGLTFLDKAASLGNPPALTELGRLYIYVAGQDELGLKYTNCAAGQGYAPANYELAMYYRLVAHNYPKAAGYYLLAASQGNDDAAFFMSGVFDKTSPDVDRMWYAPDEKLHKLYDGIYDQLAADPDLRFPNLIKDHPLPPHPTQGYDADRPDWKPGQ”, the protein production result is on record as “failed”.

As to “MMRRFKFVVQNITAKIVYTRICMGTIQKIRTDVNVLHAAIHRIEWLFETFSSVCLSFSGGKDSTVLLHLTADVARRKKRRFSVLFIDWEAQYQCTIAHILKMREMYRDVTETFYWVALPLTTVNGVSQFQPEWICWEPGVEWVRQPPDDAITDMSYFPFYRYAMTFEEFVPAFSSWFAGNRCGVAILTGVRADESLNRFMGLVSQRKLRYADDKPWTTASPEGFYYTLYPLYDWKARDIWIYNARTRAIYNPLYDLMYRAGVPLRNMRVCEPFGPEQRKGLWLYHVLEPETWARMCERVSGAASGALYANESGAYFALRKRITKPPHHTWRSYAMFLLDVMPERTAEHYRNKIAVYLRWYQTRGFPDDIPDEQENDLGSRDIPSWRRICKTLIKNDFWCRTLSFSPNKPRHYERYLQRMKERRKEWGIL”, the protein production entry was “failed”. On to “MMRSSKIGFRSLAVWPFSLTAFFFFLLHPCVSAQRVYKPEDVPNVQLADSTRLVTDEAGLLSNAQEEVMNGRLRAIRSSHAVEFAVVTLPSIGDAPLEDFTLKLARQWGVGNEKNNNGLLLVLVLDQRRVRFETGYGLEGYLPDGLLSRIIHDRMIPHFRSGNYAEGLSEGVLAVQQVLDGSYDVKPDGGDRSAVSRVSWGTIFIFYCFFMLLASASVLYQLTSYRRQYPRATAVEEYEFLRRRISMLGCVFLLLFPPGFIVVMAIIKSRQNKLKKEMAVCPCCHQHSVHLLDQSLEEDRYLSPSQQMEHKLKSRDFRVYACSSCDHTQIIGYDHPGTSYKRCPNCGTVALRYMGEKRVRTDRGMMIRKEWRCLYCGENHTQEYRDNNDAEAAATGILLGSLLGRGGRSGGFGGGFGGGGFGGGSFGGGGASGGWLEHHHHHH”, for which the protein production result is reported as “failed”. Turning to “MMRSVGAVGEPLVVMCVACPRRGGCVVTVVAAAKSCWCRGVSRNLNPGLCPARRVSVRHSGSCILWCGLPSGRVAAVSLPSDPRRFQRIYIEWQSIYLLNMAQQQRMQGQPMIIMGDDAQRVKDRDAQEHNISAARAVADAVRSTLGPKGMDKMLVSSMGDVTVTNDGVTILQEMDIDNPTAEMIVEVAETQEDEAGDGTTTAVAIAGELLKNAEDLLERDIHPTAIIKGYNLAAEQAREEVDNVAVDVDPDDKDLIRSVAETSMTGKGAELDKELLSSIIYDAVNQVAVETNDGGIVVDAANINIETQTGHGVNESQLLRGAAISKDPVHDQMPAAVEDADVLLLNEAIEVEEAEADTSVNIESPDQLQSFLDQEEKQLKEKVQQIADTGANVVFCQKGIDDMAQHYLAKEGILAVRRTKKSDIEFLTNVLDASVVTDLDAASEADVVAGSVTRDSDDELFYVEGESEQAHGVTLLLRGSTDHVVDELERGVSDALDVSAQTLSDGRVLPGGGATEVEVASRLRDFADSVSGREQLAVEAFADSLELVPRVLAENAGLDSIDTLVDLRSAHENDDDEHIGLNVLSGDLEDTFEAGVVEPAHAKEQAVTSASEAANLVLKIDDIISAGDLSTDKGDDDGGAGGMGGGMGGGMGGMM”, the protein production result is reported as “failed”. The value for “MMSDLPRDLLEERLSRVPVKSLREARFTCKNWKTLSKKRSFTKKHLAQEATSRESEFKVVMVLHCKVYLTSINLRGIHNGFDPSINRQAKLVSLNGTDQIDISEVYHCDGLLLCISKDYTRVVVWNPYRSQTLWLKPSSPDHRMDWYICAIGYEKRKSSLRYKVLRFVDFAEEEFVEYEIYELKSNSWRVLDVTSDWEVEFYARGVSLKGNTYWFATDKFPEISSNLIHSVYFLLCFNFTSERFGPRLHLPCYPMDVDTVSLSSVREEQLAVLFQRKDNLHMEIWVTTKIEPEEVMWSKLFLAVDMQPLTDFKFGIADASFIIDEEKKVVVVFAKDKDVMYPTHNTAYIIGEDGYYKEVDLGKTTDKIRDPLVCSYVPSSAQIKQGGKRKKKGKLITD” was “failed”; that for “MMSIKWEQEWDRIYKEQGEVQSEILPTVKVEKDIFKRFGCKKVMDLGCGTGRHTIYLAQNGYQVFAVDISETGIEVTRAKAEKLNLTNIEFAQLDMRNLSVDDNLMDAIMCVWTSGHGTFEDARKNLKEMYRILRLGEILVIDYVSREDENYGKGTEIEKNTFINNVEGEENIPHHYFAKEEIEELYTDFSDVDINPVDYYFTDSYGTRHTIKAFVVIAVK” was “failed”; that for “MMTAPGIYYDGRTSARRTVRLTLEGNRLLVAGEGVETSAELSRLAISSPLSTARRSVRFPSGALCEVSDTRFVDELMRRQGKGRASAAIHRWERSLPLALVALVATVAVVWGFVAFGIPALADKVARAVPPVTEVSLGRESLAMLDKLVFTPSRLPDARRRDIAAQFSRMGRDLPFAAGYRLEFRRSDQLGANALALPSGIIVVTDRLVEIAQSDDELIGVLAHEMGHVRHRHALRHVLQNSATGLIIAAITGDITSITSLAATLPTVLVDASYSRSFETEADDAAVAYLKRRGIPLKSYAAMLGRLEAEHRKKQEEKGKKEKKSLGDYFSTHPVTEERIKRVLEAGRLEHHHHHH” was “not failed”. For “MMTGLYLGALAGIAVALAVLMAGAWVVQQLTGNSGWVDTIWTFSLGLTGAVSSLWPIDGAAPDARQWLVAVLVATWSLRLGSHIAARTRHITDDPRYAAYAAQWGTDAPKRMFFFLQNQAYGTIPLVFAIFVAAHAPAGSLRLQDYLGVLILIVAIAGEGLSDAQLKAFRENSANKGKVCDAGLWRWSRHPNYFFQWFGWLAYPVIAIPFAEPLSYLWGYAALLAPLFMYWILVYVTGIPPLEEQMLKSRGDRYRDYQARTSMFFPLPPRRSATL”, the protein production result is given as “failed”. With “MMTKAFFNKLPFEVFRRYVRTGKSIPQRSPRTRKSLLVGGTIASAVVLYNFNDTFHDSVKHTALTTKRIAVVTQATTRCFYHYKRALNKSYENKKEREVALNKCHKMCALITLHALRSNGGIYIKLGQHIGAMTYLLPKEWTDTMIPLQDHCPESTYEEIDELFKEDLGTSIEDMFLEFNKTPIGVASLAQVHVAKLKNSDGKGSSVAVKCQHPSLKEFIPLDVMLTRTVFELLDVFFPDYPLTWLGDELQSSIYVELNFTKEAENAEKTRHYFSKFKKQTALKIPKVIESHKRILIAEYVGGKRLDDLEYIDSHGISRSEVSSCLSHIFNNMIFTPNVGIHCDPHGGNLAIRSVKPAKDNGYHNFEIVLFDHGLYRYPSTRTRRLYAKFWLSLLFDKDQTKMKKYAKGFANITDEQFPLLAAAITGRSIDAALNYDISTSRTQEEMDVMANGILEGTLLSDLMSILSRIPRVVLLILKTNDLTRHLDECLQNPLGPERTFLIMTQYCAKTVYDEKVERINSEYARWSIKWMWENLTNWIVYERRINQLYFYDFVLWWKKFIPKTWLSS”, the protein production result is given as “failed”.

As to “MMTLIRITSADDSRLNRLIPLYEESFPESERRKIGQLKRMIENHAPMYFNAIECDGELSGMFVYWDMGDFYYLEHLAVFPEMRNKKIGQQVLDYVAEHLKGVRLLEVEPTEDEMTTRRVNYYRRNGYEVLDKTYVQPSYHA”, the protein production entry is recorded as “failed”.

Consider “MMVGLINAIPVANKDEYKNVGVYIEHRGDEIKRSSLEMIGIGKQLARKINEKLLCVVIGDKVDGIAKEVGEYGCDIVLAAESPDLAEYRTMPYAQIIGDYIAEYKPNIFLLAATRNGRDLASRIAVKERTGITADCTVLDVDENRTLLANRPTYGESTLAEILCRNHRPQMATARPGTFTPAEKEKDHKYEIVKKKVNVDKNMLKKQIIKFIPKKATDLTAAKIVVAGGLGLGGPDGFKLLQDLADLIGGAVGSSRPPVDLGWITRDHQVGQTGQAVRPDLYVAVGISGKPQHVAGMKFSKVIISINKDPNAEINKISDYIIVEDYRKAVPALIDAIKNFGKQKVAEAQKA”, for which the protein production entry is “failed”.
